In this data set the target is alpha-thrombin (human, UniProt P00734;P00734 328-363;364-622). The experiment in a line: SPR. For orientation: SPR reads the build-up and loss of mass on a sensor chip optically.

Molecule CCUUUGGUUCGGAUAAUUAUUAAGUAUUGUCUUCAUUCA (structured_RNA, RNA (U for T); 2'-F C and U, 2'-OH A and G) [Tbn#3] yielded a Kd of 1.4 nM.

UGAGGUGUUUGGGGUACUACUGGUAAAGGAUUUUCAUCUA (structured_RNA, RNA (U for T); 2'-F C and U, 2'-OH A and G) [Tbn#6] had a Kd of 1.7 nM.

The Kd is the free concentration of one partner at which half of the binding sites on the other are occupied at equilibrium, for simple one-to-one binding.

Values taken from PMC6994090.
